Consider one substance from publication doi:10.1101/207928.

This assay has as its target glycosylated full-length human insulin receptor isoform A (human) (UniProt P06213). The assay can be described thus: negative-stain electron microscopy.

Consider “glycosylated full-length human insulin receptor isoform A (from UniProt P06213-2 28-1370)”, for which the stoichiometry N was 2.
